# Reference: publication PMC4899739
# Target: chicken type I interleukin-1 receptor (chicken)
# Experiment: SPR; BIAcore 3000, 25 °C; chicken IL-1RI (5 μg/ml in 10 mM sodium acetate, pH 5.5) immobilised on a CM5 chip by amine coupling (~370 RU); IL-1β or mutant flowed at 30 μl/min in 10 mM HEPES pH 7.2, 150 mM NaCl, 0.001% Tween-20; 90 s association and dissociation; 1:1 Langmuir fit
row,Kd [nM],Substance
1,0.37,chicken interleukin-1 beta mutant E118K (ligand)
2,0.23,chicken interleukin-1 beta mutant T117A (ligand)
3,0.12,wild-type chicken interleukin-1 beta (ligand)
